# Experimental data: paper PMC3424535
# T1: McrB-N (N-terminal DNA-binding domain of McrB) (Escherichia coli, UniProt P15005 1-161)
# T1 sequence: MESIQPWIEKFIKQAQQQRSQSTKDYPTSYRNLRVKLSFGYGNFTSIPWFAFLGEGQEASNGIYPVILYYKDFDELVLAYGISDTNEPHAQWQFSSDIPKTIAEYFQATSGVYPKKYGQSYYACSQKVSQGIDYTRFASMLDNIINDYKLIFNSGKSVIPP
# B1: p/m (dsDNA)
# DNA 1: ATCTCTCTATTCACCGGTATTCTCTCTTTC
# DNA 2: GAAAGAGAGAATACCGGTGAATAGAGAGAT
# modifications: pyrrolo-dC at position 14 of strand 1; 5mC at position 14 of strand 2
# B2: p/p (dsDNA)
# DNA 1: B1 DNA 1
# DNA 2: B1 DNA 2
# modifications: pyrrolo-dC at position 14 of each strand (first C of ACCGGT)
# Target: T1, McrB-N (N-terminal DNA-binding domain …)
# Experiment: pyrrolo-dC fluorescence
row,Binder,binding signal
1,B1,~4 fold increase of pyrrolo-dC fluorescence (not affinity)
2,B2,2.6 fold increase of pyrrolo-dC fluorescence (not affinity)
